Assay results reported in article PMC9982069 (PNAS Nexus, 2023).
Where “and” joins values, the source holds several entries; their conditions need not be identical. Equal entries are not always repeated.

B1: M protein of Pipistrellus bat coronavirus HKU5 (batCOV5-M), wild type (natural protein)
chain: MASSNVTLSNDEVLRLVKDWNFTWSVVFLLITIVLQYGYPSRSMFVYVIKMFVLWLLWPASMALSIFCAVYPIDLASQIISGILAATSCAMWISYFVQSIRLFMRTGSWWSFNPESNCLLNVPIGGTTVVRPLVEDSTSVTAVVTDGYLKMAGMHFGACDFQRLPSEVTVAKPNVLIALKMIKRQAYGTNSGVAIYHRYKAGNYRRPPIIQDQELALLRA
B2: batCOV5-M, M protein of Pipistrellus bat coronavirus HKU5, affinity- and SEC-purified (cross-linking, MST) (natural protein)
chain: MASSNVTLSNDEVLRLVKDWNFTWSVVFLLITIVLQYGYPSRSMFVYVIKMFVLWLLWPASMALSIFCAVYPIDLASQIISGILAATSCAMWISYFVQSIRLFMRTGSWWSFNPESNCLLNVPIGGTTVVRPLVEDSTSVTAVVTDGYLKMAGMHFGACDFQRLPSEVTVAKPNVLIALKMIKRQAYGTNSGVAIYHRYKAGNYRRPPIIQDQELALLRA

Legend:
[1] = target: the molecule itself; assay: cross-linking
[2] = target: batCOV5-N3 [change] (residues 391-427 of batCOV5 N protein) fused to C-terminal GFP-His10 (Pipistrellus bat coronavirus HKU5); assay: MST; details: both partners purified
[3] = target: batCOV5-N3 [change] (residues 391-427 of batCOV5 N protein) fused to C-terminal GFP-His10 (Pipistrellus bat coronavirus HKU5); assay: MST; details: both partners purified; remark: listed apart in the source
[4] = target: batCOV5-N3 [change] (residues 391-427 of batCOV5 N protein) fused to C-terminal GFP-His10 (Pipistrellus bat coronavirus HKU5); assay: MST; details: both partners purified; remark: listed apart in the source
[5] = target: batCOV5-N3 [change] (residues 391-427 of batCOV5 N protein) fused to C-terminal GFP-His10 (Pipistrellus bat coronavirus HKU5); assay: MST; details: both partners purified; remark: listed apart in the source
[6] = target: batCOV5-N3 (residues 391-427) with C-terminal GFP-His10 (MST) (Pipistrellus bat coronavirus HKU5, UniProt A3EXD7 391-427); assay: MST; details: both partners purified

Binder	stoichiometry N [1]	Kd [2] [µM]	Kd [3] [µM]	Kd [4] [µM]	Kd [5] [µM]	Kd [6] [µM]
B1	4 and 6	3.07	4.83	3.5	1.9	–
B2	–	–	–	–	–	0.77
